T1: Duck egg lysozyme (DEL), D65N + N103D double mutant of the DEL-II isoform (Anas platyrhynchos, DEL-II double mutant, strain)
T1 construct: duck egg lysozyme, DEL-II isoform, D65N + N103D double mutant; differs from HEL3X at 25 amino acids; source: Pichia pastoris, secreted, purified from culture supernatant (ion exchange)
T1 chain: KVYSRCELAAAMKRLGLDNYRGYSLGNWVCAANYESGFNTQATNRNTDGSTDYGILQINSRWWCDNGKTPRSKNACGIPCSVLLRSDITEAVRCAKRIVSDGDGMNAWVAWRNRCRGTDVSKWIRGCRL


Key:
[1] = molecular target: VH substitutions L4F, S31N, Y33H, and S56N; experiment: BLI; BLItz; biotinylated Fab loaded on streptavidin biosensors, lysozyme proteins in solution at a range of molar concentrations; PBS (sensors rehydrated in PBS with 0.1% BSA); global fit, 1:1 Fab-lysozyme interaction; affinities printed as 1/KD
Duck egg lysozyme (DEL) = experiment: bio-layer interferometry; conditions: parent: est. 2.5e7 M-1; read off a plot
[2] = molecular target: T1, Duck egg lysozyme (DEL), D65N + N103D …; experiment: BLI; BLItz (ForteBio); biotinylated Hy10 Fab variant immobilised on streptavidin biosensors (rehydrated in PBS with 0.1% wt/vol BSA); soluble monomeric lysozyme antigen as analyte at a range of concentrations; global fit, 1:1 Fab-lysozyme interaction; conditions: both partners purified

Chain of HEL^3X self-lysozyme (P00698 other isoform, or with tags, fused parts or gaps): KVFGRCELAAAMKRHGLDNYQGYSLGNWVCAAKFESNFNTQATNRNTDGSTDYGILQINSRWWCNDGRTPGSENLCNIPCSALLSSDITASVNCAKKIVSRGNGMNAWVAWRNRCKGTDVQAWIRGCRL

Molecule	fold decrease in affinity against Hy10 [1]	Ka (Duck egg lysozyme (DEL))	Ka [2]	Kd [2]
HEL^3X self-lysozyme (from UniProt P00698 19-147) (natural protein)	3 to 39 fold			
Hy10 Fab S52N		< 100000 M⁻¹		
HyHEL10 (Hy10) Fab, WT founder (Fab, V domains shown, heavy chain of Hy10 Fab; light chain of Hy10 Fab; also called Hy10WT; source: Expi293, transient (pCEP4), purified (Talon resin, gel filtration)) VH: DVQLQESGPSLVKPSQTLSLTCSVTGDSITSDYWSWIRKFPGNRLEYMGYVSYSGSTYYNPSLKSRISITRDTSKNQYYLDLNSVTTEDTATYYCANWDGDYWGQGTLVTVSA VL: DIVLTQSPATLSVTPGNSVSLSCRASQSIGNNLHWYQQKSHESPRLLIKYASQSISGIPSRFSGSGSGTDFTLSINSVETEDFGMYFCQQSNSWPYTFGGGTKLEIK			2.49e+07 M⁻¹	40.1 nM
Hy10 Fab Y33H (Fab, V domains shown, as the heavy chain of Dm5 with the stated changes; as the light chain of Dm5; also called Hy10-Y33H; source: Expi293, transient (pCEP4), purified (Talon resin, gel filtration)) VH: DVQLQESGPSLVKPSQTLSLTCSVTGDSITSDHWSWIRKFPGNRLEYMGYVSYSGSTYYNPSLKSRISITRDTSKNQYYLDLNSVTTEDTATYYCANWDGDYWGQGTLVTVSA VL: DIVLTQSPATLSVTPGNSVSLSCRASQSIGNNLHWYQQKSHESPRLLIKYASQSISGIPSRFSGSGSGTDFTLSINSVETEDFGMYFCQQSNSWPYTFGGGTKLEIK			1.68e+06 M⁻¹	594 nM
Hy10 Fab S56R (Fab, V domains shown, as the heavy chain of Dm5 with the stated changes; as the light chain of Dm5; also called Hy10-S56R; source: Expi293, transient (pCEP4), purified (Talon resin, gel filtration)) VH: DVQLQESGPSLVKPSQTLSLTCSVTGDSITSDYWSWIRKFPGNRLEYMGYVSYSGRTYYNPSLKSRISITRDTSKNQYYLDLNSVTTEDTATYYCANWDGDYWGQGTLVTVSA VL: DIVLTQSPATLSVTPGNSVSLSCRASQSIGNNLHWYQQKSHESPRLLIKYASQSISGIPSRFSGSGSGTDFTLSINSVETEDFGMYFCQQSNSWPYTFGGGTKLEIK			4.41e+06 M⁻¹	227 nM

The remaining lines, values ahead:

fold decrease in affinity against Hy10 [1]	Ka (Duck egg lysozyme (DEL))	Ka [2]	Kd [2]	Molecule
		9.35e+07 M⁻¹	10.7 nM	Hy10 Fab Y58F (Fab, V domains shown, as the heavy chain of Dm5 with the stated changes; as the light chain of Dm5; source: Expi293, transient (pCEP4), purified (Talon resin, gel filtration)) VH: DVQLQESGPSLVKPSQTLSLTCSVTGDSITSDYWSWIRKFPGNRLEYMGYVSYSGSTFYNPSLKSRISITRDTSKNQYYLDLNSVTTEDTATYYCANWDGDYWGQGTLVTVSA VL: DIVLTQSPATLSVTPGNSVSLSCRASQSIGNNLHWYQQKSHESPRLLIKYASQSISGIPSRFSGSGSGTDFTLSINSVETEDFGMYFCQQSNSWPYTFGGGTKLEIK
		1.13e+08 M⁻¹	8.85 nM	Hy10 Fab Y53F/Y58F (Fab, V domains shown, as the heavy chain of Dm5 with the stated changes; as the light chain of Dm5; source: Expi293, transient (pCEP4), purified (Talon resin, gel filtration)) VH: DVQLQESGPSLVKPSQTLSLTCSVTGDSITSDYWSWIRKFPGNRLEYMGYVSFSGSTFYNPSLKSRISITRDTSKNQYYLDLNSVTTEDTATYYCANWDGDYWGQGTLVTVSA VL: DIVLTQSPATLSVTPGNSVSLSCRASQSIGNNLHWYQQKSHESPRLLIKYASQSISGIPSRFSGSGSGTDFTLSINSVETEDFGMYFCQQSNSWPYTFGGGTKLEIK
		1.2e+08 M⁻¹	8.35 nM	Hy10 Fab Y53F (Fab, V domains shown, as the heavy chain of Dm5 with the stated changes; as the light chain of Dm5; source: Expi293, transient (pCEP4), purified (Talon resin, gel filtration)) VH: DVQLQESGPSLVKPSQTLSLTCSVTGDSITSDYWSWIRKFPGNRLEYMGYVSFSGSTYYNPSLKSRISITRDTSKNQYYLDLNSVTTEDTATYYCANWDGDYWGQGTLVTVSA VL: DIVLTQSPATLSVTPGNSVSLSCRASQSIGNNLHWYQQKSHESPRLLIKYASQSISGIPSRFSGSGSGTDFTLSINSVETEDFGMYFCQQSNSWPYTFGGGTKLEIK
		6.1e+09 M⁻¹	0.164 nM	Hy10 Fab I29F/S52T/Y53F (Fab, V domains shown, as the heavy chain of Dm5 with the stated changes; as the light chain of Dm5; source: Expi293, transient (pCEP4), purified (Talon resin, gel filtration)) VH: DVQLQESGPSLVKPSQTLSLTCSVTGDSFTSDYWSWIRKFPGNRLEYMGYVTFSGSTYYNPSLKSRISITRDTSKNQYYLDLNSVTTEDTATYYCANWDGDYWGQGTLVTVSA VL: DIVLTQSPATLSVTPGNSVSLSCRASQSIGNNLHWYQQKSHESPRLLIKYASQSISGIPSRFSGSGSGTDFTLSINSVETEDFGMYFCQQSNSWPYTFGGGTKLEIK
		3.8e+08 M⁻¹	2.62 nM	Hy10 Fab S52T/Y58F (Fab, V domains shown, as the heavy chain of Dm5 with the stated changes; as the light chain of Dm5; source: Expi293, transient (pCEP4), purified (Talon resin, gel filtration)) VH: DVQLQESGPSLVKPSQTLSLTCSVTGDSITSDYWSWIRKFPGNRLEYMGYVTYSGSTFYNPSLKSRISITRDTSKNQYYLDLNSVTTEDTATYYCANWDGDYWGQGTLVTVSA VL: DIVLTQSPATLSVTPGNSVSLSCRASQSIGNNLHWYQQKSHESPRLLIKYASQSISGIPSRFSGSGSGTDFTLSINSVETEDFGMYFCQQSNSWPYTFGGGTKLEIK

— article PMC7486785 (Proceedings of the National Academy of Sciences of the …, 2020)
